In US20100233154A1, “TARGETED BINDING AGENTS DIRECTED TO HEPARANASE AND USES THEREOF 463” (MedImmune Limited, priority 2008, published 2010):

Columns and labels:
[1] = system: HCT116 human colorectal tumour cells; assay: FACS binding to cell surface heparanase, HCT116; type: cell-based; settings: 5 or 10 μg per ml, 2 hrs at 37° C.
Description: Although heparanase is found as a secreted protein, a proportion of heparanase is found in conjunction with cell surface heparan sulfate. The ability of anti-human heparanase antibodies to bind to cell surface heparanase was tested in a FACS assay. HT1080 human fibrosarcoma cells, HCT116 human colorectal tumour cells and B16F10 AP3 murine melanoma cells were each seeded into 6-well plates and cultured for 48 hrs prior to the addition of anti-heparanase antibody 10E9.1 or control IgG2 antibody (Sigma Cat. No. 1504-1MG). Antibodies were added to the cells to a final concentration of 5 or 10 μg per ml and incubated with the cells for 2 hrs at 37° C. The cells were then washed with phosphate buffered saline (PBS) and harvested by incubation with trypsin. The cells were pelleted by centrifugation and resuspended in 0.5 ml PBS, 0.1% BSA containing 1/200 dilution of AlexaFluor 488 anti-human IgG. The cells were incubated for 1 hr at room temperature, washed with PBS/BSA, resuspended in PBS and analysed by FACS. […] The differences likely reflect a lower affinity for murine heparanase in addition to any differences in absolute heparanase expression.

[2] = target: T1, cell surface heparanase of parental MCF7 or MCF7-Hpa1#19 cells (Homo sapiens, UniProt Q9Y251); assay: Cell surface heparanase activity assay; type: cell-based; settings: 5 or 25 μg per ml
T1 construct: an expression construct comprising a full-length human heparanase cDNA under the control of a CMV promoter; expressed in transfected cells; host or cells: MCF7-Hpa1#19 (pCR3.1 vector, CMV promoter); parental MCF7 cells run alongside carry only low endogenous heparanase
T1 sequence (Q9Y251 158-543): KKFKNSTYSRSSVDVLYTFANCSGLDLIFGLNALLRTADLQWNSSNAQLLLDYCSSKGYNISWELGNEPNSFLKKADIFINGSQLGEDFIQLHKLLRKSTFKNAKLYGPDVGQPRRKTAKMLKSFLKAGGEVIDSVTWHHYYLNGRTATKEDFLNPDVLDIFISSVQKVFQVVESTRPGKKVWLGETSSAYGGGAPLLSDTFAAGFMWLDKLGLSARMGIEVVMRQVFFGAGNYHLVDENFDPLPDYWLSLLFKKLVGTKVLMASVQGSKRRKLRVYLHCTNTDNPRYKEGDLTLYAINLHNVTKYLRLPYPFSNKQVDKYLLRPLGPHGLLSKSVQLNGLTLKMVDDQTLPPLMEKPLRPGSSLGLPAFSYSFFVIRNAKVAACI
T1 sequence (Q9Y251 36-109): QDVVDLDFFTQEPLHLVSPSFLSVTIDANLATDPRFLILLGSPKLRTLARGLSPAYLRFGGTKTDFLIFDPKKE
Description: Cell surface heparanase activity was measured by a modification of the methodology used in the recombinant enzyme screen (Example 4). Parental MCF7 or MCF7-Hpa1#19 cells were cultured in non-tissue culture (non-adherent) 96-well plates, seeded at 10^6 cells per well. After overnight incubation at 37° C. anti-heparanase 10E9.1 or control IgG2 (Sigma Cat. 1504-1MG) antibodies were added to the cells, to a final concentration of 0.04-25 μg per ml, and incubated for 1 hr at room temperature. Thereafter Biotin Heparan Sulfate Europium Criptate (CisBio Cat. No. 61BHSKAA) was added to the cells (final concentration 20 ng per ml) and incubated at 37° C. for 1 hr. Degradation of the heparan sulfate substrate was determined following the addition of Streptavidin-XL665 (final concentration 250 ng per ml; CisBio Cat. No. 611SAXLA) to the cells and fluorescence measured using excitation at 330 nm and emission at 670 nm. In the absence of anti-heparanase antibody or in the presence of control IgG2, the minimum fluorescence at 670 nm is the result of degradation of heparan sulfate (see FIG. 10).

B1: 10E9.1: fully human anti-heparanase monoclonal antibody, G2κ; VH SEQ ID NO 2, VL SEQ ID NO 4; ATCC PTA-9489 (antibody, listed as Homo Sapiens, V domains shown)
VH: QVQLVQSGAEVKKPGASVKVSCKVSGYSLTELSIHWVRQAPGKGLEWMGGFDPEDGEIIFAQKFQGRVTLTEDISLDTAYMEVSSLRSEDTAVYYCATEGHDSGDYVGYYYYGLDVWGQGTTVTVSS
VL: DIQMTQSPSSLSASVGDRVTITCRASQDIRNFLAWYQQKPGKLPKLLIYAASTLQSGVPSRFSGSGSGTDFTLTISSLQPEDVASYYCQSHNSVPFTFGPGTKVDIR
notes: fully human anti-heparanase monoclonal antibody, G2κ; ATCC PTA-9489
With B1 the “Binding to cells by FACS” value [1] was “bind extensively” and the “Inhibition of cell surface heparanase activity” value [2] was “complete inhibition of cell surface heparanase activity”.
